The target of assay [1] is T1, cynomolgus monkey EGFR on CHOK1-cynoPro1 (EGFR+/CD3-) cells (cynomolgus monkey, UniProt A0A2K5WK39 25-1210).
T1 construct: whole, on cells; also called cyno EGFR
As to the kind of experiment: flow cytometry on CHOK1-cynoPro1 cells. The procedure:
(§1) Binding of EGFR×CD3 bispecific antibodies to cynomolgus monkey CD3 and EGFR expressing cells was determined by flow cytometry.
(§2) Briefly, 1×10⁵ cynomolgus monkey PBMC(CD3+/EGFR−) cells or CHOK1-cynoPro1 (EGFR+/CD3−) cells were incubated for 60 minutes at 4° C. with serial dilutions of EGFR×CD3 bispecific or hIgG4 isotype control antibodies. After washing twice with cold PBS supplemented with 1% bovine serum albumin (wash buffer), cell surface bound antibody was detected by incubating the cells with Fluorescence-labeled anti-human IgG antibody for 30 minutes at 4° C. Cells were washed twice in the same buffer and the mean fluorescence (MFI) of stained cells was measured using a FACS Canto II cytometer (BD Biosciences). Wells containing no antibody or secondary antibody only were used to establish background fluorescence. Four-parameter non-linear regression analysis was used to obtain EC₅₀ values for cell binding using GraphPad Prism software.
For orientation: Flow cytometry measures light scatter and fluorescence of single cells or particles in a stream.

Assay [2] concerns the target T2, human CD3 on Jurkat.2B8 (CD3+/EGFR-) cells (human, UniProt P07766 23-207).
T2 construct: whole, on cells; CD3 complex on cells; also called hCD3
The experiment in a line: flow cytometry on Jurkat.2B8 (CD3+/EGFR-) cells. The procedure:
Binding of EGFR×CD3 bispecific antibodies to human CD3 and EGFR expressing cells was determined by flow cytometry.
as §2, with “After” for “Briefly, 1×10⁵ cynomolgus monkey PBMC(CD3+/EGFR−) cells or CHOK1-cynoPro1 (EGFR+/CD3−) cells were incubated for 60 minutes at 4° C. with serial dilutions of EGFR×CD3 bispecific or hIgG4 isotype control antibodies. After”

Assay [3] addresses T3, cynomolgus monkey CD3 on cynomolgus monkey PBMC / T cells (cynomolgus monkey, UniProt Q95LI5 22-198).
T3 construct: whole, on cells; CD3 complex on primary cells; also called cyno CD3
As to the kind of experiment: flow cytometry on cyno T cells (cynomolgus monkey PBMC). The procedure: as §1, §2

In assay [4] the target is T2, human CD3 on Jurkat.2B8 (CD3+/EGFR-) …. The experiment in a line: FACS affinity on Jurkat.2B8 cells, quantitative beads. The procedure:
Tested antibodies were serially diluted in wash buffer (1×PBS/1% BSA) and incubated with cells at 4° C. for 1 h. […] The cells were then washed once and re-suspended in 1×PBS/1% BSA, and analyzed by flow cytometry. Fluorescence intensity will be converted to bound molecules/cell based on the quantitative beads (Quantum™ MESF Kits, Bangs Laboratories, Inc.).

The term EC50 denotes the midpoint of the concentration-response curve. Usually Kd stands for the concentration at which binding is half-saturated.

T2 sequence (P07766 23-207): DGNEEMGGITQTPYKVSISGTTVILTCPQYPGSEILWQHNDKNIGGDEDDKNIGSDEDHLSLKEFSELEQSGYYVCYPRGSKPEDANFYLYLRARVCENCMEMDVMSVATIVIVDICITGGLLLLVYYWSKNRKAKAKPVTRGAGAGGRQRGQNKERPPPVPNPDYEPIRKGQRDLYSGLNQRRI
T3 sequence (Q95LI5 22-198): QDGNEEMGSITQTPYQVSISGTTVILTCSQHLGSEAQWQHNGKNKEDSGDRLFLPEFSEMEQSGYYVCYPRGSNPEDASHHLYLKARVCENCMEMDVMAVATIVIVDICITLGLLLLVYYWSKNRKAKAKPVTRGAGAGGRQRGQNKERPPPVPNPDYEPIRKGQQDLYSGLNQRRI

B1: Panitumumab (antibody, human IgG2, V domains shown)
VH: QVQLQESGPGLVKPSETLSLTCTVSGGSVSSGDYYWTWIRQSPGKGLEWIGHIYYSGNTNYNPSLKSRLTISIDTSKTQFSLKLSSVTAADTAIYYCVRDRVTGAFDIWGQGTMVTV
VL: DIQMTQSPSSLSASVGDRVTITCQASQDISNYLNWYQQKPGKAPKLLIYDASNLETGVPSRFSGSGSGTDFTFTISSLQPEDIATYFCQHFDHLPLAFGGGTKVEIK
notes: the VH end in the benchmark IgG may differ; also called Anti-EGFR antibody; anti-EGFR mAb
For the molecule B1, in assay [1], the response was half-maximal at 0.5 nM (EC50).

B2: W3311-2.306.4-z1-uIgG1K (antibody, V domains shown)
VH: QVQLVQSGAEVKKPGSSVKVSCKASGFAFTDYYIHWVRQAPGQGLEWMGWISPGNVNTKYNENFKGRVTITADKSTSTAYMELSSLRSEDTAVYYCARDGYSLYYFDYWGQGTLVTVSS
VL: DIVMTQSPDSLAVSLGERATINCKSSQSLLNSRTRKNYLAWYQQKPGQPPKLLIYWASTRQSGVPDRFSGSGSGTDFTLTISSLQAEDVAVYYCTQSHTLRTFGGGTKVEIK
notes: also called humanized anti-CD3 antibody; Humanized anti-CD3 mAb
In the case of B2, the EC50 in assay [2] was determined as 0.15 nM; in assay [3] it was 0.21 nM.

B3: W3448-T3U1.E17R-1.uIgG4V9 (bispecific antibody)
heavy 1: QVQLVQSGAEVKKPGSSVKVSCKASGFAFTDYYIHWVRQAPGQGLEWMGWISPGNVNTKYNENFKGRVTITADKSTSTAYMELSSLRSEDTAVYYCARDGYSLYYFDYWGQGTLVTVSSASTKGPSVFPLAPCSRSTSESTAALGCLVKDYFPEPVTVSWNSGALTSGVHTFPAVLQSSGLYSLSSVVTVPSSSLGTKTYTCNVDHKPSNTKVDKRVESKYGPPCPPCPAPEAAGGPSVFLFPPKPKDTLMISRTPEVTCVVVDVSQEDPEVQFNWYVDGVEVHNAKTKPREEQFNSTYRVVSVLTVLHQDWLNGKEYKCKVSNKGLPSSIEKTISKAKGQPREPQVYTLPPCQEEMTKNQVSLWCLVKGFYPSDIAVEWESNGQPENNYKTTPPVLDSDGSFFLYSRLTVDKSRWQEGNVFSCSVMHEALHNHYTQKSLSLSLGK
light 1: not shown
heavy 2: QVQLQESGPGLVKPSETLSLTCTVSGGSVSSGDYYWTWIRQSPGKGLEWIGHIYYSGNTNYNPSLKSRLTISIDTSKTQFSLKLSSVTAADTAIYYCVRDRVTGAFDIWGQGTMVTVLEDLKNVFPPEVAVFEPSEAEISHTQKATLVCLATGFYPDHVELSWWVNGKEVHSGVCTDPQPLKEQPALQDSRYALSSRLRVSATFWQNPRNHFRCQVQFYGLSENDEWTQDRAKPVTQIVSAEAWGRYGPPCPPCPAPEAAGGPSVFLFPPKPKDTLMISRTPEVTCVVVDVSQEDPEVQFNWYVDGVEVHNAKTKPREEQFNSTYRVVSVLTVLHQDWLNGKEYKCKVSNKGLPSSIEKTISKAKGQPREPQVCTLPPSQEEMTKNQVSLSCAVKGFYPSDIAVEWESNGQPENNYKTTPPVLDSDGSFFLVSRLTVDKSRWQEGNVFSCSVMHEALHNHYTQKSLSLSLGK
light 2: DIQMTQSPSSLSASVGDRVTITCQASQDISNYLNWYQQKPGKAPKLLIYDASNLETGVPSRFSGSGSGTDFTFTISSLQPEDIATYFCQHFDHLPLAFGGGTKVEIKPDIQNPDPAVYQLRDSKSSDKSVCLFTDFDSQTQVSQSKDSDVYITDKCVLDMRSMDFKSNSAVAWSQKSDFACANAFQNSIIPEDTFFPSPESS
notes: Four-chain Ig-like bispecific: anti-CD3 Fab arm (T3) and anti-EGFR chimeric Fab arm with TCR constant domains (U1); IgG4 Fc with S228P, F234A, L235A and knob/hole mutations already contained in the full-length entries; also called lead BsAb; anti-CD3/anti-EGFR bispecific antibody
For B3, the concentration giving a half-maximal response (EC50) in assay [2] came out at 20.8 nM; in assay [3] it was 26.4 nM. This molecule also displayed a dissociation constant (Kd) in assay [4] of 4.7 nM.
